Measurements as given in PMC7979749, “Structural basis of the dynamic human CEACAM1 monomer-dimer equilibrium” (Communications Biology, 2021).

B1: human CEACAM1 IgV domain, wildtype [human] / itself (parent)
chain: AQLTTESMPFNVAEGKEVLLLVHNLPQQLFGYSWYKGERVDGNRQIVGYAIGTQQATPGPANSGRETIYPNASLLIQNVTQNDTGFYTLQVIKSDLVNEEATGQFHVY

Variants of: B1
Test: SEC-MALS
Details: with itself; 100 μM protein; read off a plot

chain 1 E100A and chain 1 I92A are the same in screen value: 15000 Daltons for the first, 15000 Daltons for the second.

chain 1 V40A gave a screen value of 19000 Daltons.
